Results from publication PMC5457521.

Assays:
[1] = target: DENV2 sE FGA02 A259C, disulfide-linked dimer (Dengue virus serotype 2, strain FGA02); test: SEC-MALS; sE alone, ~150 ug on Superdex 200 10/300 GL, Tris 50 mM, NaCl 500 mM (pH 8.0), 0.4 ml min^−1
[2] = target: DENV2 sE FGA02 L107C/A313C, disulfide-linked dimer (Dengue virus serotype 2, strain FGA02); test: SEC

Substance	stoichiometry N [1]	stoichiometry N [2]
DENV2 sE FGA02 A259C, disulfide-linked dimer (domain or fragment)	2	–
DENV2 sE FGA02 L107C/A313C, disulfide-linked dimer (domain or fragment)	–	2
